Assay results: paper PMC4269169

Target: GST-FLAG-Pol12 of Candida glabrata (Candida glabrata)
Test: pull-down

His6-SUMO-Stn1 of Candida glabrata (natural protein)
stoichiometry N: 1
